Laboratory results taken from US20240218079A1 (ASTRIA THERAPEUTICS, published 2024).
Where two headings read alike, the source gives them in different places.

Key:
human plasma kallikrein [1] = biological target: T1, human plasma kallikrein (human, UniProt P03952 20-390; P03952 391-638); experiment: SPR, pH 7.4, 37° C.
T1 construct: Active enzyme (Enzyme Research Labs is named for the immunogen); also called pkal; pKal

rat plasma kallikrein = rat plasma kallikrein (rat, UniProt P14272 20-638, limits assumed); experiment: cell-based or functional assay
rabbit plasma kallikrein = rabbit plasma kallikrein (rabbit); experiment: cell-based or functional assay
human plasma kallikrein [2] = biological target: T1, human plasma kallikrein; experiment: cell-based or functional assay
[3] = biological target: cynomolgus monkey plasma kallikrein (cynomolgus monkey, UniProt P03952 20-638 (human entry), limits assumed); experiment: cell-based or functional assay
human plasma kallikrein [4] = biological target: T1, human plasma kallikrein; experiment: cell-based or functional assay; remark: listed apart in the source
human prekallikrein [5] = biological target: T2, human prekallikrein (human, UniProt P03952 20-638); experiment: SPR, 37 C, 50 mM HEPES, 150 mM NaCl, 1.3 mM Ca++, 1 mg/ml BSA, 0.02% tween-20, pH 7.4
T2 construct: Zymogen form

human plasma kallikrein [6] = biological target: T1, human plasma kallikrein; experiment: SPR, 37 C, 50 mM HEPES, 150 mM NaCl, 0.1 mM Ca++, 1 mg/ml BSA, 0.02% tween-20, pH 6.0
human prekallikrein [7] = biological target: T2, human prekallikrein; experiment: as above
human plasma kallikrein [8] = biological target: T1, human plasma kallikrein; experiment: SPR, 37° C.; reference: human prekallikrein
[9] = biological target: T3, human FcRn (Sino Biological, Cat. No. CT009-H08H) (human, UniProt P55899 24-297; P61769 21-119); experiment: SPR, Biacore T200, human FcRn on the chip, pH 6.0
T3 construct: Coupled to the Biacore chip; also called hFcRn

human plasma kallikrein [10] = biological target: T1, human plasma kallikrein; experiment: cell-based or functional assay; remark: listed apart in the source
human plasma kallikrein [11] = biological target: T1, human plasma kallikrein; experiment: SPR, pH 6.0, 37° C.; pH 6.0, 37° C.
[12] = biological target: T3, human FcRn (Sino Biological, Cat. No. …); experiment: SPR, Biacore T200, human FcRn on the chip, pH 6.0; pH 6.0; hFcRn on the chip
[13] = biological target: T3, human FcRn (Sino Biological, Cat. No. …)
human prekallikrein [14] = biological target: T2, human prekallikrein; experiment: SPR, 37 C, 50 mM HEPES, 150 mM NaCl, 1.3 mM Ca++, 1 mg/ml BSA, 0.02% tween-20, pH 7.4 (this table has no pH labels; upper row taken as pH 7.4 as in the labelled table beside it)
human prekallikrein [15] = biological target: T2, human prekallikrein; experiment: SPR, 37 C, 50 mM HEPES, 150 mM NaCl, 0.1 mM Ca++, 1 mg/ml BSA, 0.02% tween-20, pH 6.0 (this table has no pH labels; lower row taken as pH 6.0 as in the labelled table beside it)
human plasma kallikrein [16] = biological target: T1, human plasma kallikrein; experiment: SPR, 37 C, 50 mM HEPES, 150 mM NaCl, 0.1 mM Ca++, 1 mg/ml BSA, 0.02% tween-20, pH 6.0 (this table has no pH labels; lower row taken as pH 6.0 as in the labelled tables beside it)
human plasma kallikrein [17] = biological target: T1, human plasma kallikrein; experiment: SPR, 37 C, 50 mM HEPES, 150 mM NaCl, 1.3 mM Ca++, 1 mg/ml BSA, 0.02% tween-20, pH 7.4 (this table has no pH labels; upper row taken as pH 7.4 as in the labelled tables beside it)
human plasma kallikrein [18] = biological target: T1, human plasma kallikrein; experiment: SPR, pH 7.4, 37° C.; pH 7.4, 37° C.
human plasma kallikrein [19] = biological target: T1, human plasma kallikrein; experiment: cell-based or functional assay; remark: listed apart in the source
human plasma kallikrein [20] = biological target: T1, human plasma kallikrein; experiment: cell-based or functional assay; remark: listed apart in the source
[21] = biological target: trypsin, human pancrease (Cat #16-19-032000, Athens Research and Technology Inc) (human); experiment: cell-based or functional assay
human plasma kallikrein [22] = biological target: T1, human plasma kallikrein; experiment: SPR, pH 6.0, 37° C.
human plasma kallikrein [23] = biological target: T1, human plasma kallikrein; experiment: SPR, 37° C., pH 6 against pH 7.4

T1 sequence (P03952 20-390 S143N limits assumed, chain 1 of 2): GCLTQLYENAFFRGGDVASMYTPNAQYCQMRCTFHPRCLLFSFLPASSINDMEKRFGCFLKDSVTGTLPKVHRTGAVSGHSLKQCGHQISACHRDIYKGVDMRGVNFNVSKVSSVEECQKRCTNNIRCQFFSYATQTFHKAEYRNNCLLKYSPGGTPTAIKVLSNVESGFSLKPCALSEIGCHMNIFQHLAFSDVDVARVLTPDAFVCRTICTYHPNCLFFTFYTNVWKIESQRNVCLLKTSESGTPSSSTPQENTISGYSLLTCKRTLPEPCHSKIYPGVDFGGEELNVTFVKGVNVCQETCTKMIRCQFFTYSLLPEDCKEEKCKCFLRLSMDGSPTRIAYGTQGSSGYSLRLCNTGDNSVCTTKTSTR
T1 sequence (P03952 391-638 limits assumed, chain 2 of 2): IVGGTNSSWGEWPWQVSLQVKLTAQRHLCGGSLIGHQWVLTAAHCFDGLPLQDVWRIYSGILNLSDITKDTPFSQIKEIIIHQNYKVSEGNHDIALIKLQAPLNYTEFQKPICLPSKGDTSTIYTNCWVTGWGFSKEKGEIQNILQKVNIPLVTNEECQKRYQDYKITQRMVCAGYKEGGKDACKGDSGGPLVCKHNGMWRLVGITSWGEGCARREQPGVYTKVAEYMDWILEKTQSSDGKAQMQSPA
T3 sequence (P55899 24-297 limits assumed, chain 1 of 2): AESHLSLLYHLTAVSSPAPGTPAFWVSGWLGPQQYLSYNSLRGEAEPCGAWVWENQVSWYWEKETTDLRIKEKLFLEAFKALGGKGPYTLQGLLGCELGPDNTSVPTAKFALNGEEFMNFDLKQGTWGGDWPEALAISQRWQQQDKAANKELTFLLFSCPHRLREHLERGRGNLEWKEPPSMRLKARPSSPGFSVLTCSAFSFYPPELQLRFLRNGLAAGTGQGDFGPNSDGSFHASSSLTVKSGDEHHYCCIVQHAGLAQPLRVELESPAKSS
T3 sequence (P61769 21-119 limits assumed, chain 2 of 2): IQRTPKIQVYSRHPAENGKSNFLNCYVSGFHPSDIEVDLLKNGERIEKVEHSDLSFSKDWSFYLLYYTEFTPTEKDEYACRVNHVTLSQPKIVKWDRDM
T2 sequence (P03952 20-638 limits assumed): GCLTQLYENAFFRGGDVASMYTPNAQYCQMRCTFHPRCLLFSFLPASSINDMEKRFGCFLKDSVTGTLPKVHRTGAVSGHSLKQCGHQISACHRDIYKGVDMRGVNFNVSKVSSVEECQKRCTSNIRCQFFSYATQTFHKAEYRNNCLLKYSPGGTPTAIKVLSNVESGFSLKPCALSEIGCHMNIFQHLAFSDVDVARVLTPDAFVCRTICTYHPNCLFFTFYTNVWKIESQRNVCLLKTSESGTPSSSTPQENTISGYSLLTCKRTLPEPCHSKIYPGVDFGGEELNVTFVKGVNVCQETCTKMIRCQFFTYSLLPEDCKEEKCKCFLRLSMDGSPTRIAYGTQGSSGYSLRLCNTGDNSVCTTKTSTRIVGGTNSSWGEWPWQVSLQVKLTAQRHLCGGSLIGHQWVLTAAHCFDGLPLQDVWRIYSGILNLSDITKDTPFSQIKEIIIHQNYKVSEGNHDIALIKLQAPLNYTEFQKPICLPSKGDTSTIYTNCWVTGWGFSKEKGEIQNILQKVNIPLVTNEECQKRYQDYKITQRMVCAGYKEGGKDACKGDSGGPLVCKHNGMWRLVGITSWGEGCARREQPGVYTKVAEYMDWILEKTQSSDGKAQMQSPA
rat plasma kallikrein, sequence (P14272 20-638 limits assumed): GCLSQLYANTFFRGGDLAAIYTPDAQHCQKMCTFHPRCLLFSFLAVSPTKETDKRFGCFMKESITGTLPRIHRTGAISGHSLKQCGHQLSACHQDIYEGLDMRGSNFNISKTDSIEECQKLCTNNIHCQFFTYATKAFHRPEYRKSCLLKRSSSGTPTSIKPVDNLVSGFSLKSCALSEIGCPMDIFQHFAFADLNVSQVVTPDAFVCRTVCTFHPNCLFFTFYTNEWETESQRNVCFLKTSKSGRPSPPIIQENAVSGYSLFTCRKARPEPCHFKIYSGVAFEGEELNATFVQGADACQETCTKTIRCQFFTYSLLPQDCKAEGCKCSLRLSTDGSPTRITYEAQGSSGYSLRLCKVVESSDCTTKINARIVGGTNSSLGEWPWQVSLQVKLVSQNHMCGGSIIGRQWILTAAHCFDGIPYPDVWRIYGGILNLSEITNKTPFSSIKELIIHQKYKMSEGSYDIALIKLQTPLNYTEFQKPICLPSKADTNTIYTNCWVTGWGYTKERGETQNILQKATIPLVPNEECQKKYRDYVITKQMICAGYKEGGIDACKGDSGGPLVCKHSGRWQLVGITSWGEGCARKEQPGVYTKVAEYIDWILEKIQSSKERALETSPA
cynomolgus monkey plasma kallikrein, sequence (P03952 other isoform, or with tags, fused parts or gaps limits assumed): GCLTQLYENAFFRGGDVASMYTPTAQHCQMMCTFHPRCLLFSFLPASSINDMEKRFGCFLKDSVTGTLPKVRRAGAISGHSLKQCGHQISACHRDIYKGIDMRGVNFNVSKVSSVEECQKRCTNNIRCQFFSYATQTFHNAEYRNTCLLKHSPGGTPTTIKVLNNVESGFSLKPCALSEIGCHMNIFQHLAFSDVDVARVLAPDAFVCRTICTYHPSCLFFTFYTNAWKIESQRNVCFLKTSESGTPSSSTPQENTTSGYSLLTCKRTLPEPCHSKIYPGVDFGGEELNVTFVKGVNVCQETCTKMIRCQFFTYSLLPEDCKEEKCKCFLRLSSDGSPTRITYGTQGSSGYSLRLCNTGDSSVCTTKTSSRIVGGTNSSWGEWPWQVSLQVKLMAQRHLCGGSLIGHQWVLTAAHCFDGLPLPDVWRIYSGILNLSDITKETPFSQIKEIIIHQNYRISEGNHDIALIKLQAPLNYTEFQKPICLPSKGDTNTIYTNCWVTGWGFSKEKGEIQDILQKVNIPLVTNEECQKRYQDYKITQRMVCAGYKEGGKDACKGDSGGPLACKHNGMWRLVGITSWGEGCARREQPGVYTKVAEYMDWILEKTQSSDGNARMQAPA
rabbit plasma kallikrein (rabbit), sequence (chain, as listed by the source limits assumed): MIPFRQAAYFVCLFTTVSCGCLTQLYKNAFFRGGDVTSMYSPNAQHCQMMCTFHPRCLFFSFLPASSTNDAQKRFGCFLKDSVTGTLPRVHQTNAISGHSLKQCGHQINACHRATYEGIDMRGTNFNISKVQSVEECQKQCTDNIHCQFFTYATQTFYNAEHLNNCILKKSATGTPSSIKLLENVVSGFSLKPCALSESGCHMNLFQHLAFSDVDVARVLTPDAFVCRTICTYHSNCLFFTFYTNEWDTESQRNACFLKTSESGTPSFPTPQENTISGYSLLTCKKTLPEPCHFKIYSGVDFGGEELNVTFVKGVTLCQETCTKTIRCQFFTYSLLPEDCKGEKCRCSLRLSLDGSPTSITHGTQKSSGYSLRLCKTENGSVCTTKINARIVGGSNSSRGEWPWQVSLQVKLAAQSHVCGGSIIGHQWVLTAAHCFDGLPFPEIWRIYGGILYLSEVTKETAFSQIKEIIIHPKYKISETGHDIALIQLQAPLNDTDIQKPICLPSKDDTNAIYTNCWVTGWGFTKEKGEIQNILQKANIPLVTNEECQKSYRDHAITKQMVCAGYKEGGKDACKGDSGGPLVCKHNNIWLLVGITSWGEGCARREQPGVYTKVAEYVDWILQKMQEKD

B1: MAb4-YTE (antibody, human IgG1, kappa)
heavy: QVQLVQSGAEVKKPGSSVKVSCKASGYAFSSYWMNWVRQAPGQGLEWIGQIYPGDDDTNYNAKFQGRVTITVDKSTTTAYMELSSLRSEDTAVYFCAGSLMVTTGAPFDYWGQGTTVTVSSASTKGPSVFPLAPSSKSTSGGTAALGCLVKDYFPEPVTVSWNSGALTSGVHTFPAVLQSSGLYSLSSVVTVPSSSLGTQTYICNVNHKPSNTKVDKRVEPKSCDKTHTCPPCPAPELLGGPSVFLFPPKPKDTLYITREPEVTCVVVDVSHEDPEVKFNWYVDGVEVHNAKTKPREEQYNSTYRVVSVLTVLHQDWLNGKEYKCKVSNKALPAPIEKTISKAKGQPREPQVYTLPPSREEMTKNQVSLTCLVKGFYPSDIAVEWESNGQPENNYKTTPPVLDSDGSFFLYSKLTVDKSRWQQGNVFSCSVMHEALHNHYTQKSLSLSPG
light: DIQMTQSPSSLSASVGDRVTITCKASQDVGIAVAWYQQKPGKAPKFLIYYASHRGWGVPDRFSGSGSGTDFTLTISSLQPEDFATYFCQQYRSYPLTFGQGTKLEIKRTVAAPSVFIFPPSDEQLKSGTASVVCLLNNFYPREAKVQWKVDNALQSGNSQESVTEQDSKDSTYSLSSTLTLSKADYEKHKVYACEVTHQGLSSPVTKSFNRGEC
notes: also called Mab-YTE
Human plasma kallikrein [1]
  Kd: 1.1 nM
  koff: 7.3e-05 s⁻¹
  kon: 69000 M⁻¹ s⁻¹
Rat plasma kallikrein
  IC50, inhibition of pKal (1 nM) enzymatic activity on PFR-AMC: 167 pM
Rabbit plasma kallikrein
  IC50, inhibition of pKal (1 nM) enzymatic activity on PFR-AMC: 352 pM
Human plasma kallikrein [2]
  IC50, inhibition of pKal (1 nM) enzymatic activity on PFR-AMC: 290 pM
[3]
  IC50, inhibition of pKal (1 nM) enzymatic activity on PFR-AMC: 223 pM
Human plasma kallikrein [4]
  fold higher potency than DX-2930, HMWK functional assay: ~10 fold
Human prekallikrein [5]
  Kd: 1300 nM
  koff: 0.025 s⁻¹
  kon: 19000 M⁻¹ s⁻¹
Human plasma kallikrein [6]
  koff: 7.7e-05 s⁻¹
  kon: 86000 M⁻¹ s⁻¹
Human prekallikrein [7]
  Kd: 670 nM
  koff: 0.022 s⁻¹
  kon: 34000 M⁻¹ s⁻¹
Human plasma kallikrein [8]
  fold higher affinity for plasma kallikrein than prekallikrein: > 1000 fold
[9]
  Kd: 150 nM
  koff: 0.0277 s⁻¹
  kon: 184000 M⁻¹ s⁻¹
Human plasma kallikrein [10]
  IC50 (read off the curve), lower panel: ~20 nM
  IC50 (read off the curve), upper panel, 30 nM pKal, 600 nM HMWK: ~20 nM
Human plasma kallikrein [11]
  Kd: 0.9 nM

B2: MAb4 (antibody, human IgG1, kappa)
heavy: not shown
light: DIQMTQSPSSLSASVGDRVTITCKASQDVGIAVAWYQQKPGKAPKFLIYYASHRGWGVPDRFSGSGSGTDFTLTISSLQPEDFATYFCQQYRSYPLTFGQGTKLEIKRTVAAPSVFIFPPSDEQLKSGTASVVCLLNNFYPREAKVQWKVDNALQSGNSQESVTEQDSKDSTYSLSSTLTLSKADYEKHKVYACEVTHQGLSSPVTKSFNRGEC
notes: Full length human IgG1 kappa; also called unmodified MAb4; parental MAb4
[12]
  Kd: 848 nM
  koff: 0.229 s⁻¹
  kon: 270000 M⁻¹ s⁻¹
Human plasma kallikrein [10]
  IC50 (read off the curve), lower panel: ~20 nM

B3: MAb4-LS (antibody, human IgG1, kappa)
heavy: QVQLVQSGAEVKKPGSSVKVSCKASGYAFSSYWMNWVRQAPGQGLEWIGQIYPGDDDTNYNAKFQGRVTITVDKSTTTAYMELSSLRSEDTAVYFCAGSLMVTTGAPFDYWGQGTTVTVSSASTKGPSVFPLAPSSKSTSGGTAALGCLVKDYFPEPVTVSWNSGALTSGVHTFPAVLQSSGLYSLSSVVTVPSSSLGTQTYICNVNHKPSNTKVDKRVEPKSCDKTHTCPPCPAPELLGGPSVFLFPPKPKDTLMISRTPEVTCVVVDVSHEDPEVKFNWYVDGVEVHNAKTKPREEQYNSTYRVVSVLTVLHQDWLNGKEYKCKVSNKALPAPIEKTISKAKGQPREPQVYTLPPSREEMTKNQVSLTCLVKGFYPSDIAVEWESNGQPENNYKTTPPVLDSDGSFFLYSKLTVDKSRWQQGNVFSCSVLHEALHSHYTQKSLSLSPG
light: DIQMTQSPSSLSASVGDRVTITCKASQDVGIAVAWYQQKPGKAPKFLIYYASHRGWGVPDRFSGSGSGTDFTLTISSLQPEDFATYFCQQYRSYPLTFGQGTKLEIKRTVAAPSVFIFPPSDEQLKSGTASVVCLLNNFYPREAKVQWKVDNALQSGNSQESVTEQDSKDSTYSLSSTLTLSKADYEKHKVYACEVTHQGLSSPVTKSFNRGEC
notes: Human IgG1 kappa
[13]
  Kd: 105 nM
  koff: 0.031 s⁻¹
  kon: 296000 M⁻¹ s⁻¹
Human prekallikrein [14]
  Kd: 1300 nM
  koff: 0.024 s⁻¹
  kon: 19000 M⁻¹ s⁻¹
Human prekallikrein [15]
  Kd: 670 nM
  koff: 0.023 s⁻¹
  kon: 34000 M⁻¹ s⁻¹
Human plasma kallikrein [8]
  fold higher affinity for plasma kallikrein than prekallikrein: > 1000 fold
Human plasma kallikrein [10]
  IC50 (read off the curve), lower panel: ~20 nM
Human plasma kallikrein [16]
  koff: 0.000101 s⁻¹
  kon: 83000 M⁻¹ s⁻¹
Human plasma kallikrein [17]
  koff: 8.6e-05 s⁻¹
  kon: 39000 M⁻¹ s⁻¹
Human plasma kallikrein [11]
  Kd: 1.2 nM
Human plasma kallikrein [18]
  Kd: 2.2 nM

B4: DX-2930 (antibody)
chain 1: not shown
chain 2: DIQMTQSPSTLSASVGDRVTITCRASQSISSWLAWYQQKPGKAPKLLIYKASTLESGVPSRFSGSGSGTEFTLTISSLQPDDFATYYCQQYNTYWTFGQGTKVEIKRTVAAPSVFIFPPSDEQLKSGTASVVCLLNNFYPREAKVQWKVDNALQSGNSQESVTEQDSKDSTYSLSSTLTLSKADYEKHKVYACEVTHQGLSSPVTKSFNRGEC
Human plasma kallikrein [1]
  Kd: 18 nM
  koff: 0.00056 s⁻¹
  kon: 31000 M⁻¹ s⁻¹
Human plasma kallikrein [19]
  IC50 (read off the curve): ~0.2 nM
Human plasma kallikrein [20]
  IC50 (read off the curve), lower panel, 10 nM pKal: ~3e-09 M
Human prekallikrein [5]
  Kd: 144000 nM
  koff: 0.05 s⁻¹
  kon: 600 M⁻¹ s⁻¹
Human plasma kallikrein [6]
  koff: 0.0061 s⁻¹
  kon: 26000 M⁻¹ s⁻¹
Human plasma kallikrein [8]
  fold higher affinity for plasma kallikrein than prekallikrein: > 1000 fold
[9]
  Kd: 193 nM
  koff: 0.167 s⁻¹
  kon: 866000 M⁻¹ s⁻¹
[21]
  IC50, trypsin inhibition assay (0.25 nM trypsin, PFR-AMC), Data 1: 243 nM
  IC50, trypsin inhibition assay (0.25 nM trypsin, PFR-AMC), Data 2: 376 nM
Human plasma kallikrein [22]
  Kd: 236 nM
Human plasma kallikrein [10]
  IC50 (read off the curve), lower panel: ~30 nM
Human plasma kallikrein [23]
  fold reduction in KD at pH 6 versus pH 7.4: > 10 fold

B5: MAb1 (antibody, V domains shown)
VH: QVQLQQSGAELVKPGASVKISCKASGYAFSSYWMNWVKQRPGEGLEWIGQIYPGDDDTNYNGKFKGKATLTVDKSSTTAYMQLSSLTSEDSAVYFCAGSLMVTTGAPFDYWGQGTTLTVSS
VL: DIVMTQSHKFMSTSVGDRVSITCKASQDVGIAVAWYQQKPGQSPKFLIYWASTRHTGVPDRFTGSGSGTDFTLTIRNVQSEDLSDYFCQQYRSYPLTFGSGTKLELK
Human plasma kallikrein [19]
  IC50 (read off the curve): ~1 nM
Human plasma kallikrein [20]
  IC50 (read off the curve), lower panel, 10 nM pKal: ~8e-09 M
  IC50 (read off the curve), upper panel, 1 nM pKal: ~1e-09 M
